# Changes are numbered by the printed parent chain. Where “and” joins values, the source holds several entries; their conditions need not be identical. Equal entries are not always repeated.
# B1: anti-TMEM106B antibody TM-28 (antibody, V domains shown)
# VH: EVQLQQSGPVLVKPGPSVKISCMASVFTFNDYYIHWVKQSHGKSLEWIGLVYPYNGGTNYNQNFKGKATLTVDTSSRTAYMELNSLTSEDSAVYYCARSYFSNPIGYWGQGTLVTVSE
# VL: DIVMTQSPSSLSVSVGEKVTVSCKSSQSLLNSGNQKNYLAWYQQKPGQPPKLLIYGASTRESGVPDRFTGSGSGTDFTLTISSVQAEDLAVYYCQNDHSYPLTFGAGTKLELK
# B2: anti-TMEM106B antibody TM-23 (antibody, V domains shown)
# VH: QVQLQQSGAELIRPGTSVKVSCKASGYAFTNYLIEWVKKRPGQGLEWIGVINPGSGITNYNEKFKGKATLTADKSSSTAYMQLSSLTSEDSAVYFCARSDFITTVVADYWGQGTTVTVSS
# VL: DIVVTQTPLSLPVSFGDQVSISCRSSQSLTNYYGNTYLSWYLHKPGQSPQLLIYGISNRFSGVPDRFSGSGSGTDFTLKISTIKPEDLGMYYCLQGTHQPRTFGGGTKLEIK
# B3: anti-TMEM106B antibody TM-26 (antibody, V domains shown)
# VH: B2 VH
# VL: B2 VL
# B4: anti-TMEM106B antibody TM-29 (antibody, V domains shown)
# VH: QVQLRQSGAELVRPGASVKLSCKASGYTFTDYYINWVKQRPGQGLEWIARIYPGSGYTYYNEKFKGKATLTAEGSSNTAYMQLSSLTSEDSAVYFCANHYTNPFAYWGQGTLVTVSA
# VL: DIVMTQAAFSNPVTLGTSASISCRSSKSLLHYNGITYLYWYLQKPGQSPQLLIYQMSNLASGVPDRFSSSGSGTDFTLRISRVEAEDVGVYYCAQNLELPYTFGGGTKLEIK
# B5: anti-TMEM106B antibody TM-3 (antibody, V domains shown)
# VH: QVTLKESGPGIVQPSQTLSLTCSFSGFSLNTLGRGVGWIRQPSGKGLEWLAKIWWNDDKFYYPALKSRLTISKDTSKNQIFLKIANVDTADSATYYCARIAGGTGAAYWGQGTTLTVSS
# VL: B4 VL with Y32S, Y54S, N58S, S70G, Y91F, Y101W, I111L
# B6: anti-TMEM106B antibody TM-13 (antibody, V domains shown)
# VH: QVQLQQSGAELVKPGASVKMSCKASGYTFTTFPIEWMKQSHGKGLEWIGNFHPYNDDTKYNEKFKGKATLTVDKSSSTVYLDLSRLTSDDSAVYYCARYFYGGMDYWGQGTSVTVSS
# VL: DIQMTQSPASLSVSVGETVTITCRASENIYSSLGWYQQKQGESPQLLVFAATNLADGVPSRFSGSGSGTQYSLKINSLQSEDFGTYYCQHLWSIPWTFGGGTRLEIK
# B7: anti-TMEM106B antibody TM-25 (antibody, V domains shown)
# VH: EVQLVESGGDLVKPGGSLRLSCAASGFTFSGYGMSWIRQTPDKRLEWVATISSGGRYTVYPDSVKGRFTMSRDNVKNTLYLQMSSLKSEDTALYYCARDNFYSYAMDYWGLGTSVTVSA
# VL: DIVMTQAAFSNPVTLGTSASISCRSSKSLLHSNGITYLFWYLQKPGQSPQLLIYQMSNLASGVPDRFSSSGSGTDFTLRISRVEAEDVGVYYCAQNLELWTFGGGTKLEIK
# B8: anti-TMEM106B antibody TM-5 (antibody, V domains shown)
# VH: QVQLQQSGTELARPGASVKVSCKASGYIFTTYGITWVKQRGGQGLEWIGEIYPRSDNTYYNEKFKDKATLTADKSSSTAYMELRSLTSEDSAVYFCARSKGSGTGDYWGQGTTVTVSS
# VL: DIQMTQSPASLSASVGETVTITCRASENIYIYLAWYQQKQGKTPQLLVYNGKMLAENVPSRFSGSGSGTQFSLKINSLQPEDFGSYYCQHHYGSPPAFGAGTKLELK
# B9: anti-TMEM106B antibody TM-27 (antibody, V domains shown)
# VH: QVQLQQSGAELVRPGTSVKVSCKASGYALTNYLIEWVKQRPGQGLEWIGVINPGSGSTKYNEKFKGKATLTADKSSSTAYMQLSSLTSEDSAVYFCARIIYDHDWYFDVWGTGTTVTVSS
# VL: QIVLTQSPAIMSASPGEKVTISCSASSSISYMYWYQQKPGSSPKPWIYRTSTLASGVPARFSGSGSGTSYSLTISSMEAEDAATYYCQQYHSYPRTFGGGTKLEIK
# Biological target: T1, human TMEM106B (human, UniProt Q9NUM4 2-274)
# T1 construct: Full-length, on transiently transfected HEK293 cells, or natively expressed on HeLa, U251 and A549 cells; also called huTMEM106B; huTMEM
# Test: FACS A549
# Protocol: (§1) All cells were cultured in either T75 or T150 flasks. […] The enzyme was quenched by addition of fresh media, and the cells were then distributed into 96-well plates for FACS analysis.
# (§2) FACS analysis was performed as follows. Each cell type was aliquoted in 96-well round bottom plates (2x10^5 cells per well), washed once with FACS buffer (PBS + 2% FBS + 1 mM EDTA), and incubated with 50 µL of hybridoma supernatant or purified antibody (10 µg/ml in FACS buffer) on ice for 1 hour. […] Following this secondary incubation, the cells were again washed 2x with ice-cold FACS buffer and resuspended in a final volume of 50 µL of FACS buffer + 0.25 µl/well propidium iodide (Fisher Scientific # BDB556463). Analysis was performed on a FACSCanto system (BD Biosciences) or iQue (Intellicyt), with sort gates drawn to exclude dead (i.e., propidium iodide positive) cells.
# (§3) Data is presented as mean fluorescence intensity (MFI).
row,Binder,MFI
1,B1,2000
2,B2,1090
3,B3,952
4,B4,1410
5,B5,1800
6,B6,1260
7,B7,1700
8,B8,1170
9,B9,1930

# Biological target: T1, human TMEM106B
# Test: FACS HeLa;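 note: flow cytometry of cells incubated with hybridoma supernatant or purified antibody at 10 µg/ml for 1 h on ice, propidium iodide–positive dead cells gated out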
# Protocol: as §1, §2, §3
row,Binder,MFI
1,B1,2790
2,B2,308
3,B3,384
4,B4,1650
5,B5,2690
6,B6,1380
7,B7,2560
8,B8,1740
9,B9,2960

# Biological target: T1, human TMEM106B
# Test: FACS U251;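 note: flow cytometry of cells exposed to antibody (purified at 10 µg/mL, or hybridoma supernatant) for 1 h on ice, with propidium iodide-positive dead cells gated out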
row,Binder,MFI
1,B1,998
2,B2,278
3,B3,300
4,B4,730
5,B5,1080
6,B6,787
7,B7,1110
8,B8,866
9,B9,1320

# Biological target: T2, mouse TMEM106B (mouse, UniProt Q80X71 2-275)
# T2 construct: on transiently transfected HEK293 cells, or natively expressed on mouse Neuro2a cells; also called moTMEM106B; murine TMEM106B
# Test: FACS Neuro2a;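 note: flow cytometry of cells stained with antibody or hybridoma supernatant (purified antibody at 10 µg/ml) for 1 h on ice, propidium iodide–positive dead cells gated out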
# Protocol: as §1, §2, §3
row,Binder,MFI
1,B1,2740
2,B2,333
3,B3,324
4,B4,1480
5,B5,1980
6,B6,927
7,B7,354
8,B8,1610
9,B9,1580

# Biological target: T3, GST (Pierce) (UniProt P08515 1-218 = GST, limits assumed)
# T3 construct: control for the GST part of the fusion protein; also called GST protein; Glutathione-S-transferase
# Test: ELISA, coated GST;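 note: ELISA on plates coated with GST alone at 1-10 µg/ml, antibodies applied at 100-1000x dilution, bound antibody detected by peroxidase substrate colour after acid stop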
# Protocol: Briefly, 96-well polystyrene plates were coated with 1-10 µg/ml of recombinant GST-TMEM106B-truncated protein or GST (Pierce) in PBS either at 370 Cfor 1-4 hours or overnight at 4 °C. Coated plates were then blocked with 5% BSA for 1-hour, washed 3×150 µL in TBST (Tris-buffered saline + 0.1% Tween20), and then the antibodies were added at various dilutions (100-1000x) in PBS. After 1-hour incubation (room temperature, with shaking), the plates were washed 3x150 µL in TBST. […] After a final set of washes (3×150µL in TBST), 100 µL of peroxidase substrate was added for 1 minute; the reaction was then quenched with 2N sulfuric acid (100 µL).
row,Binder,binding result
1,B1,no binding
2,B2,no binding
3,B3,no binding
4,B4,no binding
5,B5,no binding
6,B6,no binding
7,B7,no binding
8,B8,no binding
9,B9,no binding

# Biological target: T1, human TMEM106B
# Test: FACS A549, 1 ug/ml
# Protocol: (§4) Purified anti-TMEM106B antibodies were evaluated for their binding affinity to various TMEM106B-expressing cell lines including HEK293 transiently transfected with human/cyno/mouse TMEM106B, as well as HeLa cells and A549 cells. Antibodies tested for this experiment were mouse IgGs purified from hybridoma supernatant. Affinity binding to cells was determined as follows. Briefly, 1x10^5 cells were aliquoted per well in 96-well round bottom plates and incubated with 50 µL of purified anti-TMEM106B antibody at various concentrations (10x dilutions starting at 10 µg/ml) in FACS buffer (PBS + 2% FBS + 1 mM EDTA). […] Sorting was performed on a iQue (Intellicyt), with sort gates drawn to exclude dead (propidium iodide +) cells. Binding data was analyzed using median fluorescent intensity (MFI) and graphed in Prism. Values presented are MFI.
row,Binder,MFI
1,B1,2630
2,B2,398
3,B3,380
4,B4,2480
5,B5,4840
6,B6,1950
7,B7,4530
8,B8,1970
9,B9,431

# Biological target: T1, human TMEM106B
# Test: FACS A549, 10 ug/ml
# Protocol: as §4
row,Binder,MFI
1,B1,4350
2,B2,757
3,B3,509
4,B4,4200
5,B5,7670
6,B6,3890
7,B7,7000
8,B8,4800
9,B9,622

# Biological target: T1, human TMEM106B
# Test: FACS, HEK293 transfectants;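 for fold over negative controls: hybridoma supernatants incubated 30 min on ice with human TMEM106B-expressing HEK293 cells, binding read as anti-mouse-APC median fluorescence on live cells, relative to secondary-antibody-only wells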;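 for fold-change over parental HEK293: flow cytometry binding of hybridoma supernatants to HEK293 cells transiently expressing human, cyno or mouse TMEM106B, read as anti-mouse-APC median fluorescence, live cells only, 30 min on ice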
# Protocol: Initial screening of the anti-TMEM106B hybridomas was performed as follows.
# For screening of the hybridoma cell culture supernatants, humanTMEM106B-transfected HEK293 cells were aliquoted in 96-well round bottom plates (2x10^5 cells per well) and incubated with 50 µL of hybridoma cell culture supernatant on ice for 30 minutes. […] Cell sorting was performed on a FACS Canto system (BD Biosciences) or iQue (Intellicyt), with sort gates drawn to exclude dead (i.e., propidium iodide-positive) cells. Median fluorescence intensity (MFI) of anti-mouse-APC MFI on TMEM106B+ HEK293 cells was calculated for each clone, and those displaying a signal of at least 2-fold over background compared to a secondary-antibody only well were taken forward for further analysis and characterization.
row,Binder,fold over negative controls
1,B1,> 2 fold
2,B2,> 2 fold
3,B3,> 2 fold
4,B4,> 2 fold
5,B5,> 2 fold
6,B6,> 2 fold
7,B7,> 2 fold
8,B8,> 2 fold
9,B9,> 2 fold

# Biological target: T4, GST-fusion human TMEM106B truncated (human)
# T4 construct: also called GST-TMEM106B-truncated protein; GST-TMEM106B (truncated)
# Test: array SPR, Ab immobilised;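 note: antibodies amine-coupled on an MX-96 chip, antigen flowed at 500 nM top concentration in 5-fold serial dilutions, GST alone run as nonspecific-binding control, duplicate measurements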
# Protocol: Binding kinetic characterization of the purified antibodies was performed by Carterra using a proprietary array SPR instrument (MX-96) as follows. Briefly, antibodies were prepared by diluting to 5 µg/ml in 10 mM Acetate, pH 4.5 (Carterra), at 150 µL/well and then made an additional dilution at 1:10 from there by titrating 11 µl into 100 µL. […] The chip was activated with 18 mM EDC (Sigma Bioxtra) and 4.5 mM S-NHS (Thermo Fisher) diluted in 100 mM MES, pH 5.5, for 7 minutes, and then antibodies were coupled for 10 minutes at 45 µL/minute. After coupling, the chip was returned to the MX-96 and quenched for 7 minutes using 1 M Ethanolamine pH 8.5 (Carterra).
# Printed antibodies were profiled for their ability to bind GST-TMEM106B (truncated) protein (described above). Briefly, GST-TMEM106B (truncated) antigen was diluted to 18 µg/ml (500 nM of 36 kDa fusion protein) by mixing 2.7 µL of 2.0 mg/ml antigen into 298 µL Running buffer (HBS-EP+, Teknova with 1 mg/ml BSA, Sigma), and titrated 50 µl into 200 µl for 5-fold serial dilutions. In addition, binding to GST (Pierce) was assayed under the same conditions to determine the extent of any nonspecific binding of the anti-TMEM106B antibodies to GST portion of the TMEM106B-GST fusion protein. Duplicate measurements for each anti-TMEM106B antibody were taken to ensure reproducibility.
Binder,Kd,koff,kon
B1,5.3 nM,7.2e-05 s⁻¹,14000 M⁻¹ s⁻¹
B2,12 nM and 26 nM,0.00045 s⁻¹ and 0.001 s⁻¹,36000 M⁻¹ s⁻¹ and 41000 M⁻¹ s⁻¹
B3,12 nM and 19 nM,0.00041 s⁻¹ and 0.00085 s⁻¹,34000 M⁻¹ s⁻¹ and 45000 M⁻¹ s⁻¹
B4,3.5 nM and 5.2 nM,6.5e-05 s⁻¹ and 7.8e-05 s⁻¹,18000 M⁻¹ s⁻¹ and 15000 M⁻¹ s⁻¹
B5,1.7 nM and 2.1 nM,3.8e-05 s⁻¹ and 4.8e-05 s⁻¹,22000 M⁻¹ s⁻¹ and 23000 M⁻¹ s⁻¹
B6,2.4 nM and 2 nM,7e-05 s⁻¹ and 8.4e-05 s⁻¹,29000 M⁻¹ s⁻¹ and 42000 M⁻¹ s⁻¹
B7,1.5 nM and 2.6 nM,3.3e-05 s⁻¹ and 5.8e-05 s⁻¹,22000 M⁻¹ s⁻¹
B8,1.4 nM and 1.8 nM,3.3e-05 s⁻¹ and 4.8e-05 s⁻¹,23000 M⁻¹ s⁻¹ and 26000 M⁻¹ s⁻¹
B9,16 nM and 18 nM,0.00048 s⁻¹ and 0.00068 s⁻¹,31000 M⁻¹ s⁻¹ and 39000 M⁻¹ s⁻¹

# Biological target: T1, human TMEM106B
# Test: FACS HEK+huTMEM, 10 ug/ml;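 note: purified mouse IgG antibodies at 10 µg/ml bound to HEK293 cells transiently expressing human TMEM106B, measured by flow cytometry as median fluorescence intensity of propidium iodide negative live cells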
# Protocol: as §4
row,Binder,MFI
1,B1,64800
2,B2,12400
3,B3,3850
4,B4,61200
5,B5,82300
6,B6,67500
7,B7,60300
8,B8,59300
9,B9,4140

# Biological target: T1, human TMEM106B
# Test: FACS, HEK293 transfectants;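 for fold over negative controls: hybridoma supernatants incubated 30 min on ice with human TMEM106B-expressing HEK293 cells, binding read as anti-mouse-APC median fluorescence on live cells, relative to secondary-antibody-only wells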;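 for fold-change over parental HEK293: flow cytometry binding of hybridoma supernatants to HEK293 cells transiently expressing human, cyno or mouse TMEM106B, read as anti-mouse-APC median fluorescence, live cells only, 30 min on ice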
# Remark: another data set of the same source
# Protocol: (§5) For screening of the hybridoma cell culture supernatants, humanTMEM106B-transfected HEK293 cells were aliquoted in 96-well round bottom plates (2x10^5 cells per well) and incubated with 50 µL of hybridoma cell culture supernatant on ice for 30 minutes. […] Median fluorescence intensity (MFI) of anti-mouse-APC MFI on TMEM106B+ HEK293 cells was calculated for each clone, and those displaying a signal of at least 2-fold over background compared to a secondary-antibody only well were taken forward for further analysis and characterization.
row,Binder,fold-change over parental HEK293
1,B1,19.7 fold
2,B2,7.09 fold
3,B3,11.8 fold
4,B4,35.1 fold
5,B5,24.4 fold
6,B6,36.7 fold
7,B7,13 fold
8,B8,11.4 fold
9,B9,7.62 fold

# Biological target: T5, cynomolgus (cyno) TMEM106B (cynomolgus, UniProt Q9NUM4 2-274 (human entry))
# T5 construct: on transiently transfected HEK293 cells
# Test: FACS, HEK293 transfectants;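 for fold over negative controls: hybridoma supernatants incubated 30 min on ice with human TMEM106B-expressing HEK293 cells, binding read as anti-mouse-APC median fluorescence on live cells, relative to secondary-antibody-only wells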;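 for fold-change over parental HEK293: flow cytometry binding of hybridoma supernatants to HEK293 cells transiently expressing human, cyno or mouse TMEM106B, read as anti-mouse-APC median fluorescence, live cells only, 30 min on ice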
# Protocol: as §5
row,Binder,fold-change over parental HEK293
1,B1,33.7 fold
2,B2,12.2 fold
3,B3,18 fold
4,B4,66 fold
5,B5,40.5 fold
6,B6,55.5 fold
7,B7,21.4 fold
8,B8,37 fold
9,B9,13.5 fold

# Biological target: T2, mouse TMEM106B
# Test: FACS, HEK293 transfectants;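 for fold over negative controls: hybridoma supernatants incubated 30 min on ice with human TMEM106B-expressing HEK293 cells, binding read as anti-mouse-APC median fluorescence on live cells, relative to secondary-antibody-only wells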;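 for fold-change over parental HEK293: flow cytometry binding of hybridoma supernatants to HEK293 cells transiently expressing human, cyno or mouse TMEM106B, read as anti-mouse-APC median fluorescence, live cells only, 30 min on ice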
# Protocol: as §5
row,Binder,fold-change over parental HEK293
1,B1,22.1 fold
2,B2,4.46 fold
3,B3,6.54 fold
4,B4,44.6 fold
5,B5,29.2 fold
6,B6,52.7 fold
7,B7,2.87 fold
8,B8,26.6 fold
9,B9,3.32 fold

# Biological target: T1, human TMEM106B
# Test: FACS HEK+huTMEM, 0.1 ug/ml;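 note: flow cytometry binding of purified mouse IgG antibodies to HEK293 cells transiently expressing TMEM106B, read as median fluorescence intensity with propidium iodide positive dead cells gated out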
row,Binder,MFI
1,B1,19800
2,B2,2410
3,B3,1960
4,B4,24400
5,B5,48700
6,B6,19100
7,B7,32800
8,B8,10800
9,B9,1700

# Biological target: T1, human TMEM106B
# Test: FACS HEK+huTMEM, 1.0 ug/ml
row,Binder,MFI
1,B1,66400
2,B2,3900
3,B3,3340
4,B4,63300
5,B5,89100
6,B6,67100
7,B7,64700
8,B8,64500
9,B9,3040

# Biological target: T1, human TMEM106B
# Test: FACS HEK+huTMEM, 0.01 ug/ml
row,Binder,MFI
1,B1,3340
2,B2,1100
3,B3,1000
4,B4,4050
5,B5,7700
6,B6,2900
7,B7,4310
8,B8,2180
9,B9,744
